Measurements taken from article PMC5892887.

Columns and labels:
[1] = target: Core domain of bacteriophage T4 gene 32 protein (*III; protein minus both N- and C-domains) (bacteriophage T4) (UniProt P03695); experiment: cross-linking; EDC/NHS zero-length cross-linking in solution, read by SDS-PAGE; 20 uM CTD and 4 uM core domain (*III) (5:1), 40 mM MES pH 6.0, 5% glycerol, 0.5 mM EDC, 1.25 mM NHS, room temperature; also with rising p(dT)7 or NaCl
[2] = target: Core domain of bacteriophage T4 gene 32 protein (*III; protein minus both N- and C-domains) (bacteriophage T4) (UniProt P03695); experiment: cross-linking + other: MALDI mass spectrometry; MALDI mass-spectroscopic analysis of the EDC/NHS cross-linked reaction mixture of CTD and core domain
[3] = test system: ΔPR201 (bacteriophage T4); experiment: single-molecule DNA stretching; conditions: Stopped-flow: 10 mM Tris-HCl pH 8.3, 0.1 mM Na2EDTA, 25 °C, NaCl varied (0.02 M for typical traces); DNA stretching: 0.1 M Na+
1-295 (bacteriophage T4) = experiment: single-molecule DNA stretching; conditions: Stopped-flow: 10 mM Tris-HCl pH 8.3, 0.1 mM Na2EDTA, 25 °C, NaCl varied (0.02 M for typical traces); DNA stretching: 0.1 M Na+
[4] = test system: *I (gp32 lacking C-domain) (bacteriophage T4); experiment: single-molecule DNA stretching; conditions: Stopped-flow: 10 mM Tris-HCl pH 8.3, 0.1 mM Na2EDTA, 25 °C, NaCl varied (0.02 M for typical traces); DNA stretching: 0.1 M Na+
[5] = test system: gp32 (full-length gene 32 protein) (bacteriophage T4); experiment: single-molecule DNA stretching; conditions: Stopped-flow: 10 mM Tris-HCl pH 8.3, 0.1 mM Na2EDTA, 25 °C, NaCl varied (0.02 M for typical traces); DNA stretching: 0.1 M Na+

Substance: C-terminal domain (CTD) of bacteriophage T4 gene 32 protein (domain or fragment)
- percent inhibition of cross-linking at [p(dT)7]:[core domain] of 1 [1]: 50%
- percent inhibition of cross-linking with 30 mM NaCl [1]: 50%
- stoichiometry N [2]: 1

Substance: λ-DNA, double-stranded
- Ka [3]: 4390 M⁻¹
- Ka (1-295 (bacteriophage T4)): 5950 M⁻¹

Substance: λ-DNA, single-stranded (force-melted)
- Ka [4]: 1.5e+06 M⁻¹
- Ka [3]: 102000 M⁻¹
- Ka (1-295 (bacteriophage T4)): 99300 M⁻¹
- Ka [5]: 33600 M⁻¹
